PMC7665024, “Anti-apoptotic BCL-2 regulation by changes in dynamics of its long unstructured loop” (Communications Biology, 2020)
“Also recorded” adds a separate entry of the source.

B1: EEE (protein)
chain: MAHAGRTGYDNREIVMKYIHYKLSQRGYEWDAGDVGAAPPGAAPAPGIFSSQPGHTPHPAASRDPVAREEPLQTPAAPGAAAGPALEPVPPVVHLTLRQAGDDFSRRYRRDFAEMSSQLHLTPFTARGRFATVVEELFRDGVNWGRIVAFFEFGGVMCVESVNREMSPLVDNIALWMTEYLNRHLHTWIQDNGGWDAFVELYGPSMRPLFDFSWLSL
modifications: Pacific Blue (maleimide) on the native cysteine 158; left off: His6, C-terminal, state not stated

Legend:
[1] = tested on: BCL-2 (EEE or WT):BimBH3, BAX-induced MOMP; assay: Cytochrome c release assay at varying amount of ABT-199; type: biochemical, mouse
Procedure: (§1) Fig. 2 In vitro assays for evaluating BCL-2 activity. a Cytochrome c release assay with various BCL-2 mutants at varying concentrations. All of the release amounts are normalized to the result caused by the BimBH3-induced BAX activation (lane 3). […] GUVs provide a MOM-like environment devoid of endogenous mitochondrial proteins.
The cytochrome c release assays were performed at varying amounts of ABT-199.
A Dounce homogenizer was used with 20 strokes to homogenize mouse liver tissue (0.2 mg). The mitochondria fraction was separated using centrifugation according to the Mitochondria Isolation Kit (Thermo Scientific). Mitochondria Assay Buffer A (MAB A) (200 mM mannitol, 68 mM sucrose, 10 mM HEPES, 110 mM KCl, 1 mM EDTA, […], 0.1% BSA, protease inhibitor) was used to wash the mitochondria fraction, followed by centrifugation at 12,000 × g. The pellet was collected and resuspended using enough MAB B (i.e., MBA A without 0.1% BSA) and then quantified by bradford assay (Bio-Rad) to yield a final protein content of the mitochondrial fraction ~3 mg/mL. […] Quantification of IB was done using ImageJ software (version 1.49, NIH). The fraction of cytochrome c released (%) is calculated by (I–I0)/(Imax–I0)×100%, where Imax and I0 are the analyzed intensities of cytochrome c with and without activated BAX, respectively. […]

[2] = tested on: BCL-2-dependent tumors; conditions: cited from earlier work
Text: It is worth noting that the binding groove is also responsible for the engagement of an orally bioavailable small molecule ABT-199 (Venetoclax)[8],[13]. […] ABT-199 can displace the bound pro-apoptotic activator from the groove of BCL-2 efficiently and, consequently, cause the release of pro-apoptotic activators, promoting MOMP and apoptosis. This study will use ABT-199 to examine whether the BCL-2 mutants studied here have the same response as FL-BCL-2 to ABT-199.

[3] = tested on: BAX-induced MOMP, isolated mitochondria; assay: In vitro cytochrome c release assay, isolated mitochondria (BCL-2 mutants); type: biochemical, mouse; conditions: for Cytochrome c release, Average: Bax+BimBH3 = 100, mean of n = 6
Text: To verify this implication, we performed in vitro cytochrome c release assay using isolated mitochondria. […] Lane 3 (Fig. 2a) is a positive control for the cytochrome c release assays. […] (More experimental results in support of the observed BCL-2 activity are given in Supplementary Fig. 3.)
as §1
A Dounce homogenizer was used with 20 strokes to homogenize mouse liver tissue (0.2 mg). The mitochondria fraction was separated using centrifugation according to the Mitochondria Isolation Kit (Thermo Scientific). Mitochondria Assay Buffer A (MAB A) (200 mM mannitol, 68 mM sucrose, 10 mM HEPES, 110 mM KCl, 1 mM EDTA, […], 0.1% BSA, protease inhibitor) was used to wash the mitochondria fraction, followed by centrifugation at 12,000 × g. The pellet was collected and resuspended using enough MAB B (i.e., MBA A without 0.1% BSA) and then quantified by bradford assay (Bio-Rad) to yield a final protein content of the mitochondrial fraction ~3 mg/mL. The final mitochondria fraction was placed on ice for further downstream processing or stored at −80 °C with additional 300 mM trehalose for future use[38]. […] The mixture was then incubated with BAX (0.1 μM) and 10 μL of the mitochondrial fraction ([…]) for 0.5 h at 37 °C. Final volume was adjusted to 30 μL. Following centrifugation at 12,000×g for 10 min, the supernatant was subjected to subsequent immunoblotting (IB). Quantification of IB was done using ImageJ software (version 1.49, NIH). The fraction of cytochrome c released (%) is calculated by (I–I0)/(Imax–I0)×100%, where Imax and I0 are the analyzed intensities of cytochrome c with and without activated BAX, respectively.
Samples were resolved by SDS–PAGE (15%) and electroblotted onto a 0.45 μm PVDF membrane (GE Healthcare). Primary antibodies used in this study included rabbit anti-BAX N20 (Santa Cruz Biotechnology), mouse anti-BCL-2(C2) (Santa Cruz Biotechnology) and mouse anti-cytochrome c antibodies (clone 7H8.2C12, Millipore). Detection was achieved using sheep anti-mouse IgG HRP (GE Healthcare) and donkey anti-rabbit IgG HRP (GE Healthcare) secondary antibodies. Proteins were visualized by 4CN Plus Chromogenic Substrate (PerkinElmer).

[4] = tested on: apoptotic cell death; conditions: phosphomimetic BCL-2; cited from earlier work
Text: However, the three phosphorylation-related residues are in a 65-residue-long, highly flexible loop domain (denoted by FLD, herein; Fig. 1a) that is often removed for ...

[5] = tested on: trypsin; assay: Limited proteolysis by trypsin; conditions: BCL-2 20 μM, trypsin 0.04-9.44 μM, 1 h, room temperature, SDS-PAGE
Procedure: Fig. 3 Structural differences between WT and EEE. a An illustration of mutation sites prepared for spin-labeling ESR studies. b Distance distributions of various double-spin-labeled BCL-2 (WT or EEE) mutants are determined from the experimental DEER data. […] As highlighted, the displacements of α1 and α2 account for the major differences. d An illustration highlighting the positions of α2–α7 and the binding groove. Structures of WT and EEE are colored as in c. Helices α4–α7 change little between the WT and EEE. The displacement of α2 is critical to the change in the local environment of the binding groove. e Limited proteolysis of BCL-2 (20 μM) analyzed on SDS–PAGE. Trypsin concentrations were 0.04, 0.11, 0.34, 1.03, 3.11, 9.44 μM. Incubation time was 1 h at room temperature. It confirms that tertiary conformations of WT versus EEE are indeed different.
BCL-2 conformational change was assessed by limited proteolysis using trypsin (MERCK). In brief, 5 µg BCL-2 (WT or EEE) was digested at enzyme/substrate ratios ranging from 1:2 to 1:461 for 1 h at room temperature. Proteolysis was quenched by adding 1 mM PMSF, and then samples were confirmed by SDS–PAGE with Coomassie blue staining.

[6] = BAX 0.1 µM, BimBH3 2 µM, Fig. 2a

| Molecule | effect on cytochrome c release (in words) ([1]; ABT-199 4–30 µM added to pre-incubated BCL-2 (EEE or WT), BimBH3 2 µM, BAX 0.1 µM, mitochondria, Fig. 2b) | displacement of BimBH3 from BCL-2 (in words) ([1]; BCL-2 EEE or WT) | inhibition of tumor growth (in words) [2] | inhibition of BAX-induced MOMP / cytochrome c release (in words) [3, 6] | protection against apoptotic cell death (in words) [4] | susceptibility to trypsin proteolysis (in words) [5] | capacity to inhibit BAX-induced MOMP compared with S70E and WT (in words) [3, 6] | Cytochrome c release, Average ([3]; BAX+BimBH3 + 2uM BCL-2 protein) | Cytochrome c release, Average ([3]; BAX+BimBH3 + 4uM BCL-2 protein) | Cytochrome c release, Average ([3]; BAX+BimBH3 + 6uM BCL-2 protein) |
| --- | --- | --- | --- | --- | --- | --- | --- | --- | --- | --- |
| CC1(C)CCC(CN2CCN(c3ccc(C(=O)NS(=O)(=O)c4ccc(NCC5CCOCC5)c([N+](=O)[O-])c4)c(Oc4cnc5[nH]ccc5c4)c3)CC2)=C(c2ccc(Cl)cc2)C1 [ABT-199, Venetoclax, reference compound] | the greater the release of cytochrome c was detected | can displace BimBH3 from BCL-2 (either EEE or WT) | potently inhibits the growth of BCL-2-dependent tumors | – | – | – | – | – | – | – |
| BAX: full-length mouse BAX; in FRET the single-cysteine variant BAX136C labeled with AL488 [reference compound] | – | – | – | inactive | – | – | – | – | – | – |
| B1 | – | – | – | largely inhibited | enhanced to protect cells against apoptotic cell death | relatively resistant | evidently greater than those of S70E (lanes 7–9) and WT (lanes 10–12); also recorded: the most potent in inhibiting the BAX-induced MOMP | 66.3319 | 14.0555 | 8.953 |
